From patent US20210179715A1
Values joined by “and” are separate entries in the source; they are usually repeats but may differ in a detail not shown here. Identical values can stand only once. Like-named read-outs stand apart in the source and are kept apart here.

Legend:
[1] = molecular target: T1, 27mer cyno CD3 polypeptide conjugated to biotin (cynomolgus monkey); assay: BIAcore T200 SPR; biotin 27mer CD3 peptide on SA chip; TDB flowed; 37 C
T1 sequence (peptide, conjugated to biotin (site not stated)): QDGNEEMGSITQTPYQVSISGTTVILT

[2] = molecular target: T1, 27mer cyno CD3 polypeptide conjugated to biotin (cynomolgus monkey); assay: as above; remark: listed apart in the source
human LY6G6D-Fc (human) [3] = molecular target: T2, human LY6G6D-Fc (human) (UniProt O95868); assay: BIAcore SPR; LY6G6D-Fc on chip; TDB flowed; 37 C
T2 sequence: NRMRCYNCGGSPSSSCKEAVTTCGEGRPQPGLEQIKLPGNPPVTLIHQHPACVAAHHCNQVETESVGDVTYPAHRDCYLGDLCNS

[4] = molecular target: cynomolgus LY6G6D-Fc (cynomolgus monkey); assay: BIAcore SPR; LY6G6D-Fc on chip; TDB flowed; 37 C
human LY6G6D-Fc (human) [5] = molecular target: T2, human LY6G6D-Fc (human); assay: BIAcore SPR; LY6G6D-Fc on chip; TDB flowed; 37 C; remark: listed apart in the source
[6] = molecular target: cynomolgus LY6G6D-Fc (cynomolgus monkey); assay: BIAcore SPR; LY6G6D-Fc on chip; TDB flowed; 37 C; remark: listed apart in the source
[7] = molecular target: cynomolgus LY6G6D-Fc (cynomolgus monkey); assay: BIAcore SPR; two-cell TDB

B1: LY6G6D TDB assembled using a one-cell system comprising the anti-LY6G6D 20A12.QNTv12 arm (one-cell) and the anti-CD3 38E4v1 (WT) arm (bispecific antibody, V domains shown)
VH 1: EVQLLESGGGLVQPGGSLRLSCAASGFDFVNNAMIWVREAPGKGLEWVSALSFADNTAYYATWASGRFTISRDSSKTTVYLQMNSLRAEDTAVYYCMRGDLWGPGTLVTVSS
VL 1: DIQMTQSPSTLSASVGDRVTITCQASESITRYLNWYQKKPGKAPKLLIYDASKLPSGVPSRFSGSGSGTEFTLTISSLQPDDFATYYCQSTSFRGRSYQNTFGGGTKVEIK
VH 2: EVQLVQSGAEVKKPGASVKVSCKASGFTFTSYYIHWVRKAPGQGLEWIGWIYPENDNTKYNEKFKDRVTITADTSTSTAYLELSSLRSEDTAVYYCARDGYSRYYFDYWGQGTLVTVSS
VL 2: DIVMTQSPDSLAVSLGERATINCKSSQSLLNSRTRKNYLAWYQEKPGQSPKLLIYWTSTRKSGVPDRFSGSGSGTDFTLTISSLQAEDVAVYYCKQSFILRTFGQGTKVEIK
- Kd [1]: 15.4 nM and 16.5 nM
- koff [1]: 0.0399 s⁻¹ and 0.0437 s⁻¹
- kon [1]: 2.6e+06 M⁻¹ s⁻¹ and 2.65e+06 M⁻¹ s⁻¹
- Kd [2]: 15.9 nM

B2: LY6G6D TDB comprising the anti-LY6G6D 20A12.QNTv12 arm (two-cell) and the anti-CD3 40G5c arm (bispecific antibody, part only; not given: anti-CD3 arm and constant regions, V domains shown, part only)
VH: EVQLLESGGGLVQPGGSLRLSCAASGFDFVNNAMIWVRQAPGKGLEWVSALSFADNTAYYATWASGRFTISRDSSKTTVYLQMNSLRAEDTAVYYCMRGDLWGPGTLVTVSS
VL: DIQMTQSPSTLSASVGDRVTITCQASESITRYLNWYQQKPGKAPKLLIYDASKLPSGVPSRFSGSGSGTEFTLTISSLQPDDFATYYCQSTSFRGRSYQNTFGGGTKVEIK
- Kd (human LY6G6D-Fc (human) [3]): 5.62 nM
- koff (human LY6G6D-Fc (human) [3]): 0.000453 s⁻¹
- kon (human LY6G6D-Fc (human) [3]): 80600 M⁻¹ s⁻¹
- Kd [4]: 4.91 nM
- koff [4]: 0.000413 s⁻¹
- kon [4]: 84300 M⁻¹ s⁻¹
- koff (human LY6G6D-Fc (human) [5]): 0.000456 s⁻¹

B3: LY6G6D TDB assembled using a one-cell system comprising the anti-LY6G6D 20A12.QNTv12 arm (one-cell) and the anti-CD3 38E4v1 MD4 arm (bispecific antibody, V domains shown)
VH 1: EVQLLESGGGLVQPGGSLRLSCAASGFDFVNNAMIWVREAPGKGLEWVSALSFADNTAYYATWASGRFTISRDSSKTTVYLQMNSLRAEDTAVYYCMRGDLWGPGTLVTVSS
VL 1: DIQMTQSPSTLSASVGDRVTITCQASESITRYLNWYQKKPGKAPKLLIYDASKLPSGVPSRFSGSGSGTEFTLTISSLQPDDFATYYCQSTSFRGRSYQNTFGGGTKVEIK
VH 2: EVQLVQSGAEVKKPGASVKVSCKASGFTFTSYYIHWVRKAPGQGLEWIGWIYPENDNTKYNEKFKDRVTITADTSTSTAYLELSSLRSEDTAVYYCARDGYSRYYFDYWGQGTLVTVSS
VL 2: DIVMTQSPDSLAVSLGERATINCKSSQSLLNSRTRKNYLAWYQEKPGQPPKLLIYWASTRKSGVPDRFSGSGSGTDFTLTISSLQAEDVAVYYCKQSFILRTFGQGTKVEIK
- Kd [6]: 2.62 nM
- koff [6]: 0.000574 s⁻¹
- kon [6]: 219000 M⁻¹ s⁻¹
- Kd [1]: 14 nM and 14.7 nM
- koff [1]: 0.0433 s⁻¹ and 0.0426 s⁻¹
- kon [1]: 3.09e+06 M⁻¹ s⁻¹ and 2.89e+06 M⁻¹ s⁻¹
- Kd [2]: 14.4 nM

B4: LY6G6D TDB comprising the anti-LY6G6D 20A12.QNTv12 arm (two-cell) and the anti-CD3 38E4v1 arm (bispecific antibody, V domains shown)
VH 1: EVQLLESGGGLVQPGGSLRLSCAASGFDFVNNAMIWVRQAPGKGLEWVSALSFADNTAYYATWASGRFTISRDSSKTTVYLQMNSLRAEDTAVYYCMRGDLWGPGTLVTVSS
VL 1: DIQMTQSPSTLSASVGDRVTITCQASESITRYLNWYQQKPGKAPKLLIYDASKLPSGVPSRFSGSGSGTEFTLTISSLQPDDFATYYCQSTSFRGRSYQNTFGGGTKVEIK
VH 2: EVQLVQSGAEVKKPGASVKVSCKASGFTFTSYYIHWVRQAPGQGLEWIGWIYPENDNTKYNEKFKDRVTITADTSTSTAYLELSSLRSEDTAVYYCARDGYSRYYFDYWGQGTLVTVSS
VL 2: DIVMTQSPDSLAVSLGERATINCKSSQSLLNSRTRKNYLAWYQQKPGQSPKLLIYWTSTRKSGVPDRFSGSGSGTDFTLTISSLQAEDVAVYYCKQSFILRTFGQGTKVEIK
- Kd [7]: 2.29 nM
- Kd [6]: 1.92 nM
- koff [6]: 0.000444 s⁻¹
- kon [6]: 231000 M⁻¹ s⁻¹
- Kd [4]: 2.29 nM
- koff [4]: 0.00038 s⁻¹
- kon [4]: 166000 M⁻¹ s⁻¹
- Kd [1]: 13 nM and 16.5 nM
- koff [1]: 0.0337 s⁻¹ and 0.0364 s⁻¹
- kon [1]: 2.6e+06 M⁻¹ s⁻¹ and 2.21e+06 M⁻¹ s⁻¹
- Kd [2]: 14.8 nM

B5: LY6G6D TDB assembled using a one-cell system comprising the anti-LY6G6D 20A12.QNTv12 arm (one-cell) and the anti-CD3 38E4v1 MD1 arm (bispecific antibody, V domains shown)
VH 1: EVQLLESGGGLVQPGGSLRLSCAASGFDFVNNAMIWVREAPGKGLEWVSALSFADNTAYYATWASGRFTISRDSSKTTVYLQMNSLRAEDTAVYYCMRGDLWGPGTLVTVSS
VL 1: DIQMTQSPSTLSASVGDRVTITCQASESITRYLNWYQKKPGKAPKLLIYDASKLPSGVPSRFSGSGSGTEFTLTISSLQPDDFATYYCQSTSFRGRSYQNTFGGGTKVEIK
VH 2: EVQLVQSGAEVKKPGASVKVSCKASGFTFTSYYIHWVRKAPGQGLEWIGWIYPENDNTKYNEKFKDRVTITADTSTSTAYLELSSLRSEDTAVYYCARDGYSRYYFDYWGQGTLVTVSS
VL 2: DIVMTQSPDSLAVSLGERATINCKSSQSLLNSRTRKNYLAWYQEKPGQPPKLLIYWASTRESGVPDRFSGSGSGTDFTLTISSLQAEDVAVYYCTQSFILRTFGQGTKVEIK
- Kd [6]: 3.63 nM
- koff [6]: 0.000512 s⁻¹
- kon [6]: 141000 M⁻¹ s⁻¹
- Kd [1]: 26.6 nM and 25.6 nM
- koff [1]: 0.0383 s⁻¹ and 0.0376 s⁻¹
- kon [1]: 1.44e+06 M⁻¹ s⁻¹ and 1.47e+06 M⁻¹ s⁻¹
- Kd [2]: 26.1 nM

B6: LY6G6D TDB comprising the anti-LY6G6D 1G4 arm and the anti-CD3 38E4.v1 arm (bispecific antibody, V domains shown)
VH 1: EVQLVQSGAEVKKPGASVKVSCKASGYTFTTYVMHWVRQAPGQGLEWMGYINPYNDGTKYNEKFKGRVTMTRDTSISTAYMELSRLRSDDTAVYYCGRRNFDYWGQGTLVTVSS
VL 1: DIVMTQSPDSLAVSLGERATINCKSSQSLLLSGNQENYLAWHQQKPGQPPKTLITWASTRISGVPDRFSGSGSGTDFTLTISSLQAEDVAVYYCQQSYSAPYTFGGGTKVEIK
VH 2: EVQLVQSGAEVKKPGASVKVSCKASGFTFTSYYIHWVRQAPGQGLEWIGWIYPENDNTKYNEKFKDRVTITADTSTSTAYLELSSLRSEDTAVYYCARDGYSRYYFDYWGQGTLVTVSS
VL 2: DIVMTQSPDSLAVSLGERATINCKSSQSLLNSRTRKNYLAWYQQKPGQSPKLLIYWTSTRKSGVPDRFSGSGSGTDFTLTISSLQAEDVAVYYCKQSFILRTFGQGTKVEIK
- Kd [4]: 13.1 nM
- koff [4]: 0.00936 s⁻¹
- kon [4]: 714000 M⁻¹ s⁻¹
